The target in one test is T1, GRP (Mus musculus, UniProt O08967).
T1 construct: GST (N, cleaved yes); made in house; host or cells: GRP from pGEX-4T; ARF1 from baculovirus-infected Sf-9 cells
T1 sequence (O08967 1-399): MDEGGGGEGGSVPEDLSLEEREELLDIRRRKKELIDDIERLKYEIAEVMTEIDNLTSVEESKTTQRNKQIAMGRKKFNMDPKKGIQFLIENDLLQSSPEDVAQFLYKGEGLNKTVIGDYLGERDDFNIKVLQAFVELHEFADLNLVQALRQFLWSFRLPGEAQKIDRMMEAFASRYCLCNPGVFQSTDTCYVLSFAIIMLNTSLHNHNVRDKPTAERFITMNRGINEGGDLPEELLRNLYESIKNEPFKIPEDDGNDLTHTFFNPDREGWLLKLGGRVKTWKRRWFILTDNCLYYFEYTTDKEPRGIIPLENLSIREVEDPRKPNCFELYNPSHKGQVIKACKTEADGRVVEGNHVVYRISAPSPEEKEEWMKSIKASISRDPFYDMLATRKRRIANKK
Description: Effect of phosphoinositides on GRP-catalyzed ARF1 guanine nucleotide exchange. The note with it: 25 μM lipid, 0.15 μM GRP. It counts as biochemical.

The next test relates to PH domain of PLCγ1. The note with it: cited from earlier work.
The next test has as its target T2, PH domain of GRP (Mus musculus, UniProt O08967).
T2 sequence (O08967 239-399): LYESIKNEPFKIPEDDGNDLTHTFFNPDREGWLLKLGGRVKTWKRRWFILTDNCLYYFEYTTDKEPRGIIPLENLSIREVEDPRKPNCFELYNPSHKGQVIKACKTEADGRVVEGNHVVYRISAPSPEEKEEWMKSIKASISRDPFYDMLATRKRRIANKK
The test can be described thus: Competition for [3H]dioctanoyl PtdIns(3,4,5)P3 binding to the PH domain of GRP. Also noted: GST fused to the PH region of GRP (amino acids 239-399); made in house; host or cells: bacteria. The note with it: FIG. 9B. On the procedure: Binding assays were performed as described in (Rameh, L. E. et al., J. Biol. Chem., In Press). Briefly, GST fused to the PH region of GRP (amino acids 239-399) was bound to glutathione immobilized on agarose beads (Sigma). Synthetic [^3 H]-labeled diotanoyl PtdIns(3,4,5)P3 was added, and after one hour the beads were separated from the supernatant by centrifugation. The amount of [^3 H]-PtdIns(3,4,5)P3 bound to the PH domain was calculated by subtracting the amount of free [^3 H] present in supernatants from GST-GRP from the amount of free [^3 H] in supernatants from control GST. The data was fitted to the equation [bound]=Bmax×[free]/(KD + [free]) by least squares curve fit. For the competition assays the beads containing the GST-fusion proteins were incubated with 2.5 μM[^3 H]-labeled dioctanoyl PtdIns(3,4,5)P3 bound was calculated based on the amount of [^3 H] bound to the beads in the absence of competitor. The total [^3 H] bound to the GST control was less then 0.5% of the total [^3 H] bound to GRP PH domain. The data was fitted to the equation % bound=100-n×L/Klapp +L) where n is the % specific binding, L is the concentration of unlabeled lipid added and Klapp is the apparent competitive dissociation constant. The rations of the apparent dissociation constants accurately reflect the ratios of the true dissociation constants under the present experimental conditions (Rameh, L. E. et al., J. Biol. Chem., In Press).
The data depicted in FIG. 8 indicate that receptor signaling through PI3-kinases, which generates PtdIns(3,4,5)P3, may specifically regulate ARF proteins through GRP. In order to further test this, the relative binding affinities of PtdIns(3,4,5)P3 versus PtdIns (4,5)P2, which is constitutively present in cell membranes, for the PH domain of GRP were determined. A GST fusion protein of the PH domain of GRP was incubated with various concentrations of synthetic [^3 H]dioctanoyl PtdIns(3,4,5)P3 and binding was determined (FIG. 9A). These experiments show high affinity binding of this polyphosphoinositide,with a calculated Kd=0.5 μM.

In a further test the test system is ARNO. The settings on record: vesicles with high concentrations of negatively charged phospholipids; cited from earlier work.
Test [1] is described as follows: Binding of [32P]PI(3,4,5)P3 by GST fusion proteins spotted on nitrocellulose. The note with it: 150 pmol protein on nitrocellulose; relative to GST. On the procedure: The 3'-phosphatidylinositol probes labeled at the 3' position were generated using GST-p110 PI3-kinase purified from recombinant bacculovirus infected Sf 9 cells, using either purified phosphatidylinositol phosphates or crude brain lipid. Briefly, 20 mg phospholipid in chloroform was dried under N2 and resuspended in […] of buffer containing Tris-HCl pH 7.4, EDTA 1 mM and incubated in […] phopsphorylation media containing 20 mM Tris-HCl pH 7.4, 100 mM NaCl, 10 mM MgCl2, 0.5 mM EGTA. 0.2 mM adenosine, GST-p110 and 5-10 mCi [g-^32 P]ATP (5 Ci/umol). The reaction was carried out for 2 h at room temperature, quenched by addition of 0.2 ml of 1M HCl, followed by 0.5 ml of chloroform:methanol (1:1). The organic phase containing phospholipids was washed 4 times with 0.4 ml of methanol:HCl (1: 1) and stored at -70° C. until use. Just before use, the lipid was dried under a stream of nitrogen with phosphatidyl serine corresponding to a final concentration of 20 mg/ml. The identities of the PI3-P, PI3,4-P2 and PI3,4,5-P3 were confirmed by TLC and HPLC analysis.
To generate the GST fusion proteins, PCR reactions using the primers: […] (SEQ ID NO:9) and […] (SEQ ID NO:10) for the GST-N construct, […] (SEQ ID NO:11) and […] (SEQ ID NO:12) for the GST-Sec7 construct, […] (SEQ ID NO:13) and […] (SEQ ID NO:14) for the GSTPH construct, and […] (SEQ ID NO:15) and […] (SEQ ID NO:16) for the GSTGRP constructs. The sequences of the PCR products were verified, and cloned into pGEX-5X-3 in the EcoRI and Xba 1 sites. The bacteria were lysed and the fusion proteins were bound to gluthathione agarose according to standard procedures. Elution was effected by incubation of the beads with one volume 20 mM Hepes, 100 mM NaCl, 1 mM dithiotreitol (H buffer) supplemented with 10 mM gluthatione and 1% sodium cholate, and the eluate was dialyzed extensively against H buffer. For binding assays, protein was bound to nitrocellulose using a BIO-RAD BIO-DOT™ apparatus, using 150 pmol per well for binding assays and 7.5 pmol for competition assays. The nitrocellulose was washed in assay buffer, and 3 mm circles of the filters containing the protein were cut out and incubated in […] assay buffer with the relevant lipids and competitors for 2 h under constant agitation. The filters were washed four times with 1 mL assay buffer and counted in a scintillation counter.
In order to determine whether PI(3,4,5)P3 binding could be localized to specific sequences within the GRP structure, GST fusion proteins containing either residues 239 to 399 (PH domain), residues 52 to 260 (Sec7 domain), or residues 5 to 71, full length GRP residues 5-399 were expressed in bacteria and purified on glutathione-conjugated beads. […] 150 pmol of the proteins were spotted on nitrocellulose filters, incubated with [^32 P]PI(3,4,5)P3 and the amount of bound lipid was determined as described. The values are the means of the quadruplicate determinations, and the error bars are the standard deviations. […] Nitrocellulose filters with GST-PH were incubated with 25,000 cpm of each of the phospholipids and the amount of bound lipid determined as described above. The values are the means of quadruplicate determinations and the error bars are the standard deviations. […] Although previous work has shown that PH domain from PLCδ (Lemmon et al. (1995) supra) and various other proteins bind 4,5-polyphosphoinositide, none have been reported to preferentially associate with a 3-polyphosphoinositide. […]

For a further test, the system named is ARF1. Description: ARF1 guanine nucleotide exchange ([35S]GTPγS binding). It counts as biochemical. A general note: GTPγS resists hydrolysis and so accumulates on activated G proteins.
A further test deals with ARF6. The test can be described thus: ARF6 guanine nucleotide exchange ([35S]GTPγS binding). It counts as biochemical.
The test system of test [2] is ARF5. The test can be described thus: ARF5 guanine nucleotide exchange ([35S]GTPγS binding). It counts as biochemical.
Test [3] has as its system ARF5. The settings on record: cited from earlier work.
Test [4] deals with integrin β2 cytoplasmic domain. The settings on record: through Sec7 homology region; cited from earlier work.
Where [5] appears, read: 40 minutes, phosphatidylcholine and cholate.

Entries after “also recorded” stand apart in the source; their conditions may differ.

We go through 3 molecules from patent publication US6194173A, “Binding proteins for phosphoinositides, GRP1 or general receptor 1 for phophoinositide” (priority 1999, dated 2001).

For PtdIns(4,5)P2, the “stimulation of ARF1 exchange activity in the presence of GRP” value at GRP (0.05% cholate and 0.05% CHAPS (low negative charge)) was “little or no effect”; at GRP (0.1% cholate (high negative charge)), “stimulated”. Moreover, in the test on PH domain of PLCγ1, the “interaction with isolated PH domain of PLCγ1” value is “high affinity”. In addition, on PH domain of GRP, the “affinity, fold lower than PtdIns(3,4,5)P3” value worked out at 50 fold. In addition, the “recruitment of ARNO and stimulation of guanine nucleotide exchange on ARF1” value in the test on ARNO is given as “causing stimulation of guanine nucleotide exchange on ARF1; also recorded: sufficient for its recruitment to membranes as well as activation of ARF exchange”.

B1: GRP: general receptor for phosphoinositides, mouse protein with SEC7 and PH domains (protein)
chain: MDEGGGGEGGSVPEDLSLEEREELLDIRRRKKELIDDIERLKYEIAEVMTEIDNLTSVEESKTTQRNKQIAMGRKKFNMDPKKGIQFLIENDLLQSSPEDVAQFLYKGEGLNKTVIGDYLGERDDFNIKVLQAFVELHEFADLNLVQALRQFLWSFRLPGEAQKIDRMMEAFASRYCLCNPGVFQSTDTCYVLSFAIIMLNTSLHNHNVRDKPTAERFITMNRGINEGGDLPEELLRNLYESIKNEPFKIPEDDGNDLTHTFFNPDREGWLLKLGGRVKTWKRRWFILTDNCLYYFEYTTDKEPRGIIPLENLSIREVEDPRKPNCFELYNPSHKGQVIKACKTEADGRVVEGNHVVYRISAPSPEEKEEWMKSIKASISRDPFYDMLATRKRRIANKK
Turning to B1, the “binding of [^32 P]PI(3,4,5)P3 by GST fusion protein” value in test [1] is “extensive binding”. The “concentration that maximally activates labeled nucleotide binding to ARF1” value in the test with ARF1 (setting [5]) worked out at 2.5 µM. Also, the “ARF1 guanine nucleotide exchange” value with ARF1 ([^35 S]GTPγS binding to immunoprecipitated ARF1) is “catalyze nucleotide exchange; also recorded: selectively catalyzes”. The “ARF6 guanine nucleotide exchange” value in the test with ARF6 is “no effect and not”. Further, the “concentration that maximally activates labeled nucleotide binding to ARF5” value in the test on ARF5 [2] (setting [5]) turned out to be 2.5 µM. In the test on ARF5 [2] ([^35 S]GTPγS binding), the “ARF5 guanine nucleotide exchange” value is “significantly enhanced; also recorded: catalyze nucleotide exchange; also recorded: selectively catalyzes”.

B2: cytohesin-1: B2-1 encoded protein (denoted cytohesin 1) (protein)
chain: MEEDDSYVPSDLTAEERQELENIRRRKQELLADIQRLKDEIAEVANEIENLGSTEERKNMQRNKQVAMGRKKFNMDPKKGIQFLIENDLLKNTCEDIAQFLYKGEGLNKTAIGDYLGERDEFNIQVLHAFVELHEFTDLNLVQALRQFLWSFRLPGEAQKIDRMMEAFAQRYCQCNNGVFQSTDTCYVLSFAIIMLNTSLHNPNVKDKPTVERFIAMNRGINDGGDLPEELLRNLYESIKNEPFKIPEDDGNDLTHTFFNPDREGWLLKLGGGRVKTWKRRWFILTDNCLYYFEYTTDKEPRGIIPLENLSIREVEDSKKPNCFELYIPDNKDQVIKACKTEADGRWEGNHTVYRISAPTPEEKEEWIKCIKAAISRDPFYEMLAARKKKVSSTKRH
Regarding B2, in the test on ARF5 [3], the “ARF5 as substrate for cytohesin-1” value is given as “not to be a substrate”. Besides, the “binding of the integrin β2 cytoplasmic domain” value in [4] is reported as “high affinity”.
